Assay results published in paper PMC3229523, “Identification of Lactoferricin B Intracellular Targets Using an Escherichia coli Proteome Chip” (PLoS ONE, 2011).
Ends that are not written are not given here. * marks the point of attachment. Biotin = O=C1N[C@H]2[C@H](CS[C@H]2CCCCC(=O)*)N1

Experiments:
Assay in all cases: peptide or protein array; E. coli proteome chip: purified His-tagged proteins printed in duplicate on Fullmoon slides, blocked with 1% BSA; 10 nM N-terminal biotinylated LfcinB with 1% BSA, room temperature, 1 h; detected with DyLight 649-labeled streptavidin, ratio to DyLight 549-labeled anti-His antibody; ProCAT normalisation, local cut-off; triplicate chips
Conditions in all cases: both partners purified
[1] = molecular target: T1, YjiL (E. coli K-12, UniProt P39383 1-255)
T1 construct: YjiL, E. coli K-12
T1 sequence (looked up): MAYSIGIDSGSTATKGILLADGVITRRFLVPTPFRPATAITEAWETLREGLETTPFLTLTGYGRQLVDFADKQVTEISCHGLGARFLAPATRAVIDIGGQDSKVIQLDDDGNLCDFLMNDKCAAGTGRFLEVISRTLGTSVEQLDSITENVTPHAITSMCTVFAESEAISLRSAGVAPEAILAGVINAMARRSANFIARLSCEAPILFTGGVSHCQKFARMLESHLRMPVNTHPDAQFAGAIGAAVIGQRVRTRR

[2] = molecular target: T2, YbaQ (E. coli K-12, UniProt P0A9T6 1-113)
T2 construct: YbaQ, E. coli K-12
T2 sequence (looked up): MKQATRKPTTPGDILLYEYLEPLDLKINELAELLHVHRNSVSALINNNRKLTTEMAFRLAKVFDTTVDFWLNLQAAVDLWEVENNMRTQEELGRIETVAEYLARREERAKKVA

[3] = molecular target: T3, YhaJ (E. coli K-12, UniProt P67660 1-298)
T3 construct: YhaJ, E. coli K-12
T3 sequence (looked up): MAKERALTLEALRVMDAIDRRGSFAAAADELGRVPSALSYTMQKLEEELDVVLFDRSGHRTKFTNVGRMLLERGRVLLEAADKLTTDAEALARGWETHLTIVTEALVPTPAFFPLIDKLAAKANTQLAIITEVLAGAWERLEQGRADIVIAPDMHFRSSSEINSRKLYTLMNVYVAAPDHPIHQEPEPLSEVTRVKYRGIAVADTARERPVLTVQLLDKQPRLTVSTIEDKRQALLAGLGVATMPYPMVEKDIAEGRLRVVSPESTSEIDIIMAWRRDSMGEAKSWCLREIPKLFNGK

[4] = molecular target: T4, YdiT (E. coli K-12, UniProt P77714 1-97)
T4 construct: YdiT, E. coli K-12
T4 sequence (looked up): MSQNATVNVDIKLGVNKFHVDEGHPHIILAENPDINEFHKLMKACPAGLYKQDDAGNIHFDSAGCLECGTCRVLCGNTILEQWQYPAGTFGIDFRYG

[5] = molecular target: T5, YjhI (E. coli K-12, UniProt P39360 1-262)
T5 construct: YjhI, E. coli K-12
T5 sequence (looked up): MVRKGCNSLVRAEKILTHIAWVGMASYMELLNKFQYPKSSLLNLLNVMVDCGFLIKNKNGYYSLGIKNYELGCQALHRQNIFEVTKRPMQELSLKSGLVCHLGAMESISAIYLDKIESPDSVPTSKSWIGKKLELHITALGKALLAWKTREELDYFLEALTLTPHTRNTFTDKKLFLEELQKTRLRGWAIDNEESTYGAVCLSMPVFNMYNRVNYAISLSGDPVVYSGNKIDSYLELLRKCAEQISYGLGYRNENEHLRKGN

[6] = molecular target: T6, RffH (E. coli K-12, UniProt P61887 1-293)
T6 construct: RffH, E. coli K-12
T6 sequence (P61887 whole entry): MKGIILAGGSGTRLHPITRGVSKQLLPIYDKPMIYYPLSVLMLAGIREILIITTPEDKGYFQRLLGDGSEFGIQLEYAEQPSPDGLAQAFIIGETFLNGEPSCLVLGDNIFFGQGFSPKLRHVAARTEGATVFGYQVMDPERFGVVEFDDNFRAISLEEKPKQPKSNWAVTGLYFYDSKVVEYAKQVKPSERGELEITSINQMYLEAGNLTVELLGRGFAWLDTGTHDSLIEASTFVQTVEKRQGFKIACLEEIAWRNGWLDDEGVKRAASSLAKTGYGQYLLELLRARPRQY

[7] = molecular target: T7, XerB (E. coli K-12, UniProt P68767 1-503)
T7 construct: XerB, E. coli K-12
T7 sequence (looked up): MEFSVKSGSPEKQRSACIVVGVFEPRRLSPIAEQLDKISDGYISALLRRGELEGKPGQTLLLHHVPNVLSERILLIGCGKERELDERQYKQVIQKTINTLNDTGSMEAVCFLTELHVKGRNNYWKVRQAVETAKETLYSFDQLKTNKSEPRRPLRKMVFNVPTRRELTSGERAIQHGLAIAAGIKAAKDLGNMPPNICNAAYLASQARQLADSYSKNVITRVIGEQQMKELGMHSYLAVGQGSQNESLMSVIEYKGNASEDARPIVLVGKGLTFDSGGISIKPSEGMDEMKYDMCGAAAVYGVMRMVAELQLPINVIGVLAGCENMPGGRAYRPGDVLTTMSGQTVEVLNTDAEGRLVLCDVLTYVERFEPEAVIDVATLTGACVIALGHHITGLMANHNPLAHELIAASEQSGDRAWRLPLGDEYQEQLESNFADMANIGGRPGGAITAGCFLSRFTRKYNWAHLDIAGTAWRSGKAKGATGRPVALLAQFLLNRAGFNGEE

Measured: binding result

B1: N-terminal biotinylated Lactoferricin B (peptide, UniProt P24627 36-60, looked up)
peptide: Biotin-FKCRRWQWRMKKLGAPSITCVRRAF
modifications: ends and bridges not checked
notes: lactoferricin B (LfcinB), cationic antimicrobial peptide of 25 amino acids; also called biotinylated LfcinB; biotin-labeled LfcinB; source: bought: Kelowna Inc
binds: all assays above
